This note sets out measurements from paper PMC8295500, “Co-Immobilized Capillary Enzyme Reactor Based on Beta-Secretase1 and Acetylcholinesterase: A Model for Dual-Ligand Screening” (Frontiers in Chemistry, 2021).

Substrate in this series: CC(=O)OCC[N+](C)(C)C
The series is described as follows: purified protein. It counts as biochemical, Homo sapiens.

B1: acetylcholinesterase (huAChE) (Homo sapiens) (protein)
chain: EGREDAELLVTVRGGRLRGIRLKTPGGPVSAFLGIPFAEPPMGPRRFLPPEPKQPWSGVVDATTFQSVCYQYVDTLYPGFEGTEMWNPNRELSEDCLYLNVWTPYPRPTSPTPVLVWIYGGGFYSGASSLDVYDGRFLVQAERTVLVSMNYRVGAFGFLALPGSREAPGNVGLLDQRLALQWVQENVAAFGGDPTSVTLFGESAGAASVGMHLLSPPSRGLFHRAVLQSGAPNGPWATVGMGEARRRATQLAHLVGCPPGGTGGNDTELVACLRTRPAQVLVNHEWHVLPQESVFRFSFVPVVDGDFLSDTPEALINAGDFHGLQVLVGVVKDEGSYFLVYGAPGFSKDNESLISRAEFLAGVRVGVPQVSDLAAEAVVLHYTDWLHPEDPARLREALSDVVGDHNVVCPVAQLAGRLAAQGARVYAYVFEHRASTLSWPLWMGVPHGYEIEFIFGIPLDPSRNYTAEEKIFAQRLMRYWANFARTGDPNEPRDPKAPQWPPYTAGAQQYVSLDLRPLEVRRGLRAQACAFWNRFLPKLLSATDTLDEAERQWKAEFHRWSSYMVHWKNQFDHYSKQDRCSDL
notes: human recombinant, expressed in HEK 293 cells; immobilized on fused silica capillary
As a reminder, the Km is the substrate concentration at which the rate is half of its maximum. As to B1, the Km was 23.3 ± 1 µM.
